Source: PMC3777401

Tests used:
[1] = molecular target: T1, FLAG-CTCF-6xHis (UniProt Q61164 1-736); assay: EMSA
T1 sequence: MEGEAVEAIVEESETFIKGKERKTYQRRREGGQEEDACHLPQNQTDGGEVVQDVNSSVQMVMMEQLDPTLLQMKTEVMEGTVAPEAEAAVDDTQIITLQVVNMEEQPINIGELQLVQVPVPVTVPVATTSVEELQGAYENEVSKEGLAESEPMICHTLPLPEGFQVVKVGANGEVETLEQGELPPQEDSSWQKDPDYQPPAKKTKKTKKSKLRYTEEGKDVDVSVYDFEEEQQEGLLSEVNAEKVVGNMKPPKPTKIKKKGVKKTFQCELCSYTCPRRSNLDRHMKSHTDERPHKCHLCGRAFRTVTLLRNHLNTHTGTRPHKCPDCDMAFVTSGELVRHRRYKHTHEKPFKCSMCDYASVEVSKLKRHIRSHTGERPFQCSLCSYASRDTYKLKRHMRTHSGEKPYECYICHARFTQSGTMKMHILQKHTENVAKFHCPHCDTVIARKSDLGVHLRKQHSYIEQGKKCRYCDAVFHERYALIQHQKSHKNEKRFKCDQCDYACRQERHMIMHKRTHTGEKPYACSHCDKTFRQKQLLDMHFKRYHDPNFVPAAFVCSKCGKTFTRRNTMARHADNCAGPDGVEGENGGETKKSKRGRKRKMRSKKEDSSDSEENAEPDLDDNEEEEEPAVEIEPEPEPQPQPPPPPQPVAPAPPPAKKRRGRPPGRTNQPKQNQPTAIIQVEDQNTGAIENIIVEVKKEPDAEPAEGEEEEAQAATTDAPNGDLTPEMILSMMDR

[2] = molecular target: T1, FLAG-CTCF-6xHis; assay: competition

B1: P1 (dsDNA)
DNA 1: TTGTGGCCACTCCTCTTCTGGTCTCTCCGCCTTCAGCGCCGCGGATCAGTTAAAGGCGTGCAACGGCTTGCTCCAGCCAT
DNA 2: ATGGCTGGAGCAAGCCGTTGCACGCCTTTAACTGATCCGCGGCGCTGAAGGCGGAGAGACCAGAAGAGGAGTGGCCACAA
B1: no binding [1].

B2: P2 (dsDNA)
DNA 1: GAATGTGTCTAAGATGGCGGAAGTCATGTGACCTGCCCTCTAGTGGTTTCTTTCAGTGATTTTTTTTTTGGCGGGCTTTA
DNA 2: TAAAGCCCGCCAAAAAAAAAATCACTGAAAGAAACCACTAGAGGGCAGGTCACATGACTTCCGCCATCTTAGACACATTC
B2: binds [2].

B3: RS14C (dsDNA)
DNA 1: CTATGCATTAGGTTTGGGTGTTATACCCGTGTAGGCCAGCAGAGGGTGTCGGATCCCAAGGAAACCAAGTTACAGACGCC
DNA 2: GGCGTCTGTAACTTGGTTTCCTTGGGATCCGACACCCTCTGCTGGCCTACACGGGTATAACACCCAAACCTAATGCATAG
B3: binds [1].

B4: Xist_5' (dsDNA)
DNA 1: TTTGGCTTCAGATGCCTTGGAAAGATTCATGCTGCCACCTGCTGGTTTATTCAGTCTGTGTGCATCATTTATTTACTTGT
DNA 2: ACAAGTAAATAAATGATGCACACAGACTGAATAAACCAGCAGGTGGCAGCATGAATCTTTCCAAGGCATCTGAAGCCAAA
B4: binds [1].
